Measurements: patent publication US20260217864A1 (JANUX THERAPEUTICS, published 2026)

Columns and labels:
[1] = molecular target: T1, six-transmembrane epithelial antigen of the prostate-1 (STEAP-1) (UniProt Q9UHE8 1-339, limits assumed); assay: cell-based or functional assay
[2] = molecular target: T1, six-transmembrane epithelial antigen of …; assay: cell-based or functional assay; remark: listed apart in the source

T1 sequence (Q9UHE8 whole entry): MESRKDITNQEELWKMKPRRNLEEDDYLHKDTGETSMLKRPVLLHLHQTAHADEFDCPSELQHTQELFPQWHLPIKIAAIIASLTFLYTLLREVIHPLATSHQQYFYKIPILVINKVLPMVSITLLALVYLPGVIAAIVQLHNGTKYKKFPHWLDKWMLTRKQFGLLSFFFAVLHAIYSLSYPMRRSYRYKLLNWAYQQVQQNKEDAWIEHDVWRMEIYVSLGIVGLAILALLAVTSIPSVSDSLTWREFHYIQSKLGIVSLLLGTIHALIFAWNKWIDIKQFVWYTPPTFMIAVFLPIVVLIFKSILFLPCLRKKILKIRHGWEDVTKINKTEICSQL

| Binder | Cell line cytotoxicity EC50 (pM), 22RV1 [1] [pM] | Cell line cytotoxicity EC50 (pM), A673 [1] [pM] | Cell line cytotoxicity EC50 (pM), C4-2B [1] [pM] | Cell line cytotoxicity EC50 (pM), IM-95 [1] [pM] | Cell line cytotoxicity EC50 (pM), LNCaP [1] [pM] | EC50/pM, LNCaP tumor cell killing [2] [pM] | Cell line cytotoxicity EC50 (pM), VCaP [1] [pM] |
| --- | --- | --- | --- | --- | --- | --- | --- |
| TCE-26 (bispecific antibody) light: not shown heavy: EVQLVESGGGLVQPGGSLRLSCAVSGYSITSDYAWNWVRQAPGKGLEWVGYISNSGSTSYNPSLKSRFTISRDTSKNTLYLQMNSLRAEDTAVYYCARERNYDYDDYYYAMDYWGQGTLVTVSSASTKGPSVFPLAPSSKSTSGGTAALGCLVKDYFPEPVTVSWNSGALTSGVHTFPAVLQSSGLYSLSSVVTVPSSSLGTQTYICNVNHKPSNTKVDKKVEPKSC | 2100 | 45.8 | 1150 | 147 | 585 | 585 | – |
| TCE-87 (bispecific antibody) light: not shown heavy: EVQLVESGGGLVQPGGSLRLSCAVSGYSITSDYAWNWVRQAPGKGLEWVGYISNSGSTSYNPSLKSRFTISRDTSKNTLYLQMNSLRAEDTAVYYCARERNYDYDDYYYAMDYWGQGTLVTVSSASTKGPSVFPLAPSSKSTSGGTAALGCLVKDYFPEPVTVSWNSGALTSGVHTFPAVLQSSGLYSLSSVVTVPSSSLGTQTYICNVNHKPSNTKVDKKVEPKSC | – | – | – | – | 235 | 235 | – |
| TCE-82 (bispecific antibody) light: not shown heavy: EVQLVESGGGLVQPGGSLRLSCAVSGYSITSDYAWNWVRQAPGKGLEWVGYISNSGSTSYNPSLKSRFTISRDTSKNTLYLQMNSLRAEDTAVYYCARERNYDYDDYYYAMDYWGQGTLVTVSSASTKGPSVFPLAPSSKSTSGGTAALGCLVKDYFPEPVTVSWNSGALTSGVHTFPAVLQSSGLYSLSSVVTVPSSSLGTQTYICNVNHKPSNTKVDKKVEPKSC | – | – | – | – | 214 | 214 | – |
| TCE-88 (bispecific antibody) light: not shown heavy: EVQLVESGGGLVQPGGSLRLSCAVSGYSITSDYAWNWVRQAPGKGLEWVGYISNSGSTSYNPSLKSRFTISRDTSKNTLYLQMNSLRAEDTAVYYCARERNYDYDDYYYAMDYWGQGTLVTVSSASTKGPSVFPLAPSSKSTSGGTAALGCLVKDYFPEPVTVSWNSGALTSGVHTFPAVLQSSGLYSLSSVVTVPSSSLGTQTYICNVNHKPSNTKVDKKVEPKSC | – | – | – | – | 183 | 183 | – |
| TCE-84 (bispecific antibody) light: not shown heavy: EVQLVESGGGLVQPGGSLRLSCAVSGYSITSDYAWNWVRQAPGKGLEWVGYISNSGSTSYNPSLKSRFTISRDTSKNTLYLQMNSLRAEDTAVYYCARERNYDYDDYYYAMDYWGQGTLVTVSSASTKGPSVFPLAPSSKSTSGGTAALGCLVKDYFPEPVTVSWNSGALTSGVHTFPAVLQSSGLYSLSSVVTVPSSSLGTQTYICNVNHKPSNTKVDKKVEPKSC | – | – | – | – | 192 | 192 | – |
| TCE-79 (bispecific antibody) light: not shown heavy: EVQLVESGGGLVQPGGSLRLSCAVSGYSITSDYAWNWVRQAPGKGLEWVGYISNSGSTSYNPSLKSRFTISRDTSKNTLYLQMNSLRAEDTAVYYCARERNYDYDDYYYAMDYWGQGTLVTVSSASTKGPSVFPLAPSSKSTSGGTAALGCLVKDYFPEPVTVSWNSGALTSGVHTFPAVLQSSGLYSLSSVVTVPSSSLGTQTYICNVNHKPSNTKVDKKVEPKSC | – | – | – | – | 163 | 163 | – |
| TCE-86 (bispecific antibody) light: not shown heavy: EVQLVESGGGLVQPGGSLRLSCAVSGYSITSDYAWNWVRQAPGKGLEWVGYISNSGSTSYNPSLKSRFTISRDTSKNTLYLQMNSLRAEDTAVYYCARERNYDYDDYYYAMDYWGQGTLVTVSSASTKGPSVFPLAPSSKSTSGGTAALGCLVKDYFPEPVTVSWNSGALTSGVHTFPAVLQSSGLYSLSSVVTVPSSSLGTQTYICNVNHKPSNTKVDKKVEPKSC | – | – | – | – | 232 | 233 | – |
| TCE-89 (bispecific antibody) light: not shown heavy: EVQLVESGGGLVQPGGSLRLSCAVSGYSITSDYAWNWVRQAPGKGLEWVGYISNSGSTSYNPSLKSRFTISRDTSKNTLYLQMNSLRAEDTAVYYCARERNYDYDDYYYAMDYWGQGTLVTVSSASTKGPSVFPLAPSSKSTSGGTAALGCLVKDYFPEPVTVSWNSGALTSGVHTFPAVLQSSGLYSLSSVVTVPSSSLGTQTYICNVNHKPSNTKVDKKVEPKSC | – | – | – | – | 123 | 123 | – |
| TCE-81 (bispecific antibody) light: not shown heavy: EVQLVESGGGLVQPGGSLRLSCAVSGYSITSDYAWNWVRQAPGKGLEWVGYISNSGSTSYNPSLKSRFTISRDTSKNTLYLQMNSLRAEDTAVYYCARERNYDYDDYYYAMDYWGQGTLVTVSSASTKGPSVFPLAPSSKSTSGGTAALGCLVKDYFPEPVTVSWNSGALTSGVHTFPAVLQSSGLYSLSSVVTVPSSSLGTQTYICNVNHKPSNTKVDKKVEPKSC | – | – | – | – | 239 | 239 | – |
| TCE-83 (bispecific antibody) light: not shown heavy: EVQLVESGGGLVQPGGSLRLSCAVSGYSITSDYAWNWVRQAPGKGLEWVGYISNSGSTSYNPSLKSRFTISRDTSKNTLYLQMNSLRAEDTAVYYCARERNYDYDDYYYAMDYWGQGTLVTVSSASTKGPSVFPLAPSSKSTSGGTAALGCLVKDYFPEPVTVSWNSGALTSGVHTFPAVLQSSGLYSLSSVVTVPSSSLGTQTYICNVNHKPSNTKVDKKVEPKSC | – | – | – | – | 209 | 209 | – |
| TCE-85 (bispecific antibody) light: not shown heavy: EVQLVESGGGLVQPGGSLRLSCAVSGYSITSDYAWNWVRQAPGKGLEWVGYISNSGSTSYNPSLKSRFTISRDTSKNTLYLQMNSLRAEDTAVYYCARERNYDYDDYYYAMDYWGQGTLVTVSSASTKGPSVFPLAPSSKSTSGGTAALGCLVKDYFPEPVTVSWNSGALTSGVHTFPAVLQSSGLYSLSSVVTVPSSSLGTQTYICNVNHKPSNTKVDKKVEPKSC | – | – | – | – | 360 | 361 | – |
| TCE-80 (bispecific antibody) light: not shown heavy: EVQLVESGGGLVQPGGSLRLSCAVSGYSITSDYAWNWVRQAPGKGLEWVGYISNSGSTSYNPSLKSRFTISRDTSKNTLYLQMNSLRAEDTAVYYCARERNYDYDDYYYAMDYWGQGTLVTVSSASTKGPSVFPLAPSSKSTSGGTAALGCLVKDYFPEPVTVSWNSGALTSGVHTFPAVLQSSGLYSLSSVVTVPSSSLGTQTYICNVNHKPSNTKVDKKVEPKSC | – | – | – | – | 260 | 260 | – |
| TCE-93 (bispecific antibody) light: EIVLTQSPATLSLSPGERATLSCRASSSVSYMHWFQQKPGQAPRLLIYSTSNLASGIPARFSGSGSGTDYTLTISSLEPEDFAVYYCQQRRSFPYTFGQGTKLEIKRTVAAPSVFIFPPSDEQLKSGTASVVCLLNNFYPREAKVQWKVDNALQSGNSQESVTEQDSKDSTYSLSSTLTLSKADYEKHKVYACEVTHQGLSSPVTKSFNRGEC heavy 1: QVQLVQSGAEVKKPGASVKVSCKASGYTFSTYWIEWVRQAPGQRLEWMGEILPGSGQTDFNEKFQGRVTFTADTSSDTAYMELSSLRSEDTAVYYCTRWGYYGTRGYFNVWGQGTLVTVSSASTKGPSVFPLAPSSKSTSGGTAALGCLVKDYFPEPVTVSWNSGALTSGVHTFPAVLQSSGLYSLSSVVTVPSSSLGTQTYICNVNHKPSDTKVDKKVEPKSCDKTHTCPPCPAPPVAGPSVFLFPPKPKDTLMISRTPEVTCVVVDVKHEDPEVKFNWYVDGVEVHNAKTKPCEEEYGSTYRCVSVLTVLHQDWLNGKEYKCKVSNKALPAPIEKTISKAKGQPREPQVYTLPPSREEMTKNQVSLTCDVSGFYPSDIAVEWESDGQPENNYKTTPPVLDSDGSFFLYSKLTVDKSRWEQGDVFSCSVMHEALHNHYTQKSLSLSPGK heavy 2: QVQLVQSGAEVKKPGASVKVSCKASGYTFSTYWIEWVRQAPGQRLEWMGEILPGSGQTDFNEKFQGRVTFTADTSSDTAYMELSSLRSEDTAVYYCTRWGYYGTRGYFNVWGQGTLVTVSSASTKGPSVFPLAPSSKSTSGGTAALGCLVKDYFPEPVTVSWNSGALTSGVHTFPAVLQSSGLYSLSSVVTVPSSSLGTQTYICNVNHKPSNTKVDKKVEPKSCGGGGSGGGGSEVQLVESGGGLVQPGGSLRLSCAASGFTFSTYAMNWVRQAPGKGLEWVGRIRSKYNNYATYYADSVKGRFTISRDDSKNTLYLQMNSLRAEDTAVYYCVRHGNFGDSYVSWFAYWGQGTLVTVSSGKPGSGKPGSGKPGSGKPGSQAVVTQEPSLTVSPGGTVTLTCGSSTGAVTTSNYANWVQQKPGKSPRGLIGGTNKRAPGVPARFSGSLLGGKAALTISGAQPEDEADYYCALWYSNHWVFGGGTKLTVLGGGGSGGGGSKTHTCPPCPAPPVAGPSVFLFPPKPKDTLMISRTPEVTCVVVDVKHEDPEVKFNWYVDGVEVHNAKTKPCEEQYGSTYRCVSVLTVLHQDWLNGKEYKCKVSNKALPAPIEKTISKAKGQPREPQVYTLPPSREQMTKNQVKLTCLVKGFYPSDIAVEWESNGQPENNYKTTPPVLDSDGSFFLYSKLTVDKSRWQQGNVFSCSVMHEALHNHYTQKSLSLSPGK | 23.2 | 0.9 | 0.4 | 3.6 | 0.2 | – | 1.2 |
| TCE-90 (bispecific antibody) light: not shown heavy 1: EVQLVESGGGLVQPGGSLRLSCAVSGYSITSDYAWNWVRQAPGKGLEWVGYISNSGSTSYNPSLKSRFTISRDTSKNTLYLQMNSLRAEDTAVYYCARERNYDYDDYYYAMDYWGQGTLVTVSSASTKGPSVFPLAPSSKSTSGGTAALGCLVKDYFPEPVTVSWNSGALTSGVHTFPAVLQSSGLYSLSSVVTVPSSSLGTQTYICNVNHKPSNTKVDKKVEPKSCDKTHTCPPCPAPELLGG not shown heavy 2: not shown | 171 | 17.3 | – | 11.6 | 68.5 | – | – |
